Source: patent publication US20250101133A1 (published 2025)

Experiments:
Test in all cases: SPR
[1] = molecular target: T1, recombinant human NEDP1 protein (human, UniProt Q96LD8 1-212)
T1 chain: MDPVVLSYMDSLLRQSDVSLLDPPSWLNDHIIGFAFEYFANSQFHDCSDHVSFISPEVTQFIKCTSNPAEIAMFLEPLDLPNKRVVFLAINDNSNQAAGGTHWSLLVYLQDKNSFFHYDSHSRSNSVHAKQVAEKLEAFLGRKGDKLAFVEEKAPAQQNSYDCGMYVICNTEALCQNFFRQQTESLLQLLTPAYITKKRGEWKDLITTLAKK

Nb12 = molecular target: Nb12
Nb6 = molecular target: Nb6
Nb19 = molecular target: Nb19
Nb20 = molecular target: Nb20

| Binder | Kd [1] | further results |
| --- | --- | --- |
| AbR2DP35, purified His6-tagged nanobody (VHH) VHH: QVQLQESGGGLVQPGGSLTLSCAASGVMFSTGVMGWYRQAPGKQREAVAAITSGGLTTYKDSVKGRFAISRDNTKSTGYLQMNRLRPEDTAVYYCNVRGYWGQGTQVTVSS | < 0.01 nM | – |
| human NEDP1 (enzyme) MDPVVLSYMDSLLRQSDVSLLDPPSWLNDHIIGFAFEYFANSQFHDCSDHVSFISPEVTQFIKCTSNPAEIAMFLEPLDLPNKRVVFLAINDNSNQAAGGTHWSLLVYLQDKNSFFHYDSHSRSNSVHAKQVAEKLEAFLGRKGDKLAFVEEKAPAQQNSYDCGMYVICNTEALCQNFFRQQTESLLQLLTPAYITKKRGEWKDLITTLAKK | – | Kd (Nb12): 0.33 nM; Kd (Nb6): < 0.01 nM; Kd (Nb19): 0.196 nM; Kd (Nb20): 0.203 nM |
| AbR2DP46, purified His6-tagged nanobody (VHH) VHH: QVQLQESGGGLVQAGGSLRLSCAASGSPFSIGTMAWYRQAPGNQRASVAAITRGGATTYANSVKGRFTVSRDNAKNTVYLQMNSLKPEDTAAYYCSVWAGDRAYWGQGTQVTVSS | 6.98 nM | – |
| AbR2DP12, purified His6-tagged nanobody (VHH) VHH: QVQLQESGGGLVQAGGSLRLSCAASGSTSSFNVMAWYHQAPGKQRESVASITSGGITVYRDSVKGRFAISSDNAKNTVFLQMNSLKPEDTGVYYCGGVVDGRVYRGQGTQVTVSS | < 0.01 nM | – |
| AbR2DP47, purified His6-tagged nanobody (VHH) VHH: QVQLQESGGGLVEPGGSLRLSCAASGSISSINVMAWYRQAPGKQRESVAAISSFGITTYSETVKGRFTASRDNAKNTMYLQMNNLKPEDTAVYYCKGPNTDWGQGTQVTVSS | 5.39 nM | – |
